The source of these data is article PMC4022879.

Test [1] addresses activated coagulation factor XI (FXIa). Description: chromogenic enzyme inhibition assay; 200 pM FXIa, 500 μM S2366, 37 °C, 110 mM Tris-HCl pH 8.0, 250 mM NaCl, 1% BSA; residual activity in triplicate at at least six inhibitor concentrations; Ki from a linear fit of 1/v against inhibitor concentration.
Test [2] deals with bovine pancreatic trypsin (bovine). Description: chromogenic enzyme inhibition assay; 1 nM trypsin, 500 μM S2765, 37 °C, 110 mM Tris-HCl pH 8.0, 250 mM NaCl, 1% BSA; residual activity in triplicate at at least six inhibitor concentrations; Ki from a linear fit of 1/v against inhibitor concentration.
Test [3] deals with activated coagulation factor XII (FXIIa). In words: chromogenic enzyme inhibition assay; 1 nM FXIIa, 500 μM S2302, 37 °C, 110 mM Tris-HCl pH 8.0, 250 mM NaCl, 1% BSA; residual activity in triplicate at at least six inhibitor concentrations; Ki from a linear fit of 1/v against inhibitor concentration.

A word on the Ki: it is a dissociation constant, usually derived from enzyme kinetics or from competition with a known ligand. Read a low Ki as tighter binding.

In the case of “CHFI-2, synthetic cyclic peptide that resembles the CHFI protease-binding loop (from UniProt P01088 48-73)”, the results for the inhibition constant Ki in test [1] and in test [2] were 94 µM and 11700 nM, respectively.

In test [3], “CHFI-123 (from UniProt P01088 29-121) (domain or fragment)” gave a Ki of 116 nM.

With “CHFI-234 (from UniProt P01088 40-136) (domain or fragment)”, the Ki was 3.2 nM in test [3] and 2.2 nM in test [2]. In the same order, the values of “CHFI-1234 (from UniProt P01088 29-108) (domain or fragment)” are 1 nM and 1 nM.
